B1: Breast cancer anti-estrogen resistance protein 1 (Homo sapiens), P56945 (parent)
chain: MNHLNVLAKALYDNVAESPDELSFRKGDIMTVLEQDTQGLDGWWLCSLHGRQGIVPGNRLKILVGMYDKKPAGPGPGPPATPAQPQPGLHAPAPPASQYTPMLPNTYQPQPDSVYLVPTPSKAQQGLYQVPGPSPQFQSPPAKQTSTFSKQTPHHPFPSPATDLYQVPPGPGGPAQDIYQVPPSAGMGHDIYQVPPSMDTRSWEGTKPPAKVVVPTRVGQGYVYEAAQPEQDEYDIPRHLLAPGPQDIYDVPPVRGLLPSQYGQEVYDTPPMAVKGPNGRDPLLEVYDVPPSVEKGLPPSNHHAVYDVPPSVSKDVPDGPLLREETYDVPPAFAKAKPFDPARTPLVLAAPPPDSPPAEDVYDVPPPAPDLYDVPPGLRRPGPGTLYDVPRERVLPPEVADGGVVDSGVYAVPPPAEREAPAEGKRLSASSTGSTRSSQSASSLEVAGPGREPLELEVAVEALARLQQGVSATVAHLLDLAGSAGATGSWRSPSEPQEPLVQDLQAAVAAVQSAVHELLEFARSAVGNAAHTSDRALHAKLSRQLQKMEDVHQTLVAHGQALDAGRGGSGATLEDLDRLVACSRAVPEDAKQLASFLHGNASLLFRRTKATAPGPEGGGTLHPNPTDKTSSIQSRPLPSPPKFTSQDSPDGQYENSEGGWMEDYDYVHLQGKEEFEKTQKELLEKGSITRQGKSQLELQQLKQFERLEQEVSRPIDHDLANWTPAQPLAPGRTGGLGPSDRQLLLFYLEQCEANLTTLTNAVDAFFTAVATNQPPKIFVAHSKFVILSAHKLVFIGDTLSRQAKAADVRSQVTHYSNLLCDLLRGIVATTKAAALQYPSPSAAQDMVERVKELGHSTQQFRRVLGQLAAA
partner: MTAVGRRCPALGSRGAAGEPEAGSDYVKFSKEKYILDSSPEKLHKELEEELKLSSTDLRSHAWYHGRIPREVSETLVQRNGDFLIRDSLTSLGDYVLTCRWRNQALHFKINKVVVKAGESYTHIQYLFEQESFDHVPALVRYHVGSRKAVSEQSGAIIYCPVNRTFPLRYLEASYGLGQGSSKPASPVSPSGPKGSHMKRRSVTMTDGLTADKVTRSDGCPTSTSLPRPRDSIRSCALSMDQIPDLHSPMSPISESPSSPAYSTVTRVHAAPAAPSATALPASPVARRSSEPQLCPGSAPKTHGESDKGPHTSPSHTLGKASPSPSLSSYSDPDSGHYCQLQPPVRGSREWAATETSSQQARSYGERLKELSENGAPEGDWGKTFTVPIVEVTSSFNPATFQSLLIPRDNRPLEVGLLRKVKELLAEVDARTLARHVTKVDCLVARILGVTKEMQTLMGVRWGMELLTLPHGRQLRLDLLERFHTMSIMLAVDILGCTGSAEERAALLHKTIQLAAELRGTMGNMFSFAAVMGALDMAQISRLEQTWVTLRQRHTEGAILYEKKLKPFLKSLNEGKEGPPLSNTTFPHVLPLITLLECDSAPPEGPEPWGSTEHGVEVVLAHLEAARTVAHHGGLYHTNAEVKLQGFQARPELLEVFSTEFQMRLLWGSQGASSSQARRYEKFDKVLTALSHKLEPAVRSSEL
B2: SH2 domain-containing protein 3C (Homo sapiens), Q8N5H7-2 (parent)
chain: B1 partner
partner: B1 chain
B3: Breast cancer anti-estrogen resistance protein 3 (Homo sapiens), O75815-1 (parent)
chain: MAAGKFASLPRNMPVNHQFPLASSMDLLSSRSPLAEHRPDAYQDVSIHGTLPRKKKGPPPIRSCDDFSHMGTLPHSKSPRQNSPVTQDGIQESPWQDRHGETFTFRDPHLLDPTVEYVKFSKERHIMDRTPEKLKKELEEELLLSSEDLRSHAWYHGRIPRQVSENLVQRDGDFLVRDSLSSPGNFVLTCQWKNLAQHFKINRTVLRLSEAYSRVQYQFEMESFDSIPGLVRCYVGNRRPISQQSGAIIFQPINRTVPLRCLEEHYGTSPGQAREGSLTKGRPDVAKRLSLTMGGVQAREQNLPRGNLLRNKEKSGSQPACLDHMQDRRALSLKAHQSESYLPIGCKLPPQSSGVDTSPCPNSPVFRTGSEPALSPAVVRRVSSDARAGEALRGSDSQLCPKPPPKPCKVPFLKVPSSPSAWLNSEANYCELNPAFATGCGRGAKLPSCAQGSHTELLTAKQNEAPGPRNSGVNYLILDDDDRERPWEPAAAQMEKGQWDKGEFVTPLLETVSSFRPNEFESKFLPPENKPLETAMLKRAKELFTNNDPKVIAQHVLSMDCRVARILGVSEEMRRNMGVSSGLELITLPHGHQLRLDIIERHNTMAIGIAVDILGCTGTLEDRAATLSKIIQVAVELKDSMGDLYSFSALMKALEMPQITRLEKTWTALRHQYTQTAILYEKQLKPFSKLLHEGRESTCVPPNNVSVPLLMPLVTLMERQAVTFEGTDMWEKNDQSCEIMLNHLATARFMAEAADSYRMNAERILAGFQPDEEMNEICKTEFQMRLLWGSKGAQVNQTERYEKFNQILTALSRKLEPPPVKQAEL
partner: B1 chain

The source of these data is IntAct's records for PubMed 22081014.

The variants in one experiment derive from B1. The following applies: with SH2D3C.
Take F794R: the “effect of a mutation on the interaction” value is reported as “disrupting interaction”.
The same measure, in the same setting: as for L787E, the entry is “disrupting interaction”.

The variants in the next experiment derive from B1. The settings on record: with SH2D3C. This is another data set of the same source.
As for F794R, the “effect of a mutation on the interaction” value is “decreasing interaction”.
The same measure, in the same setting: as for F794E;D797R, the entry is “disrupting interaction”; as for L787E, “decreasing interaction”; as for D797R, “decreasing interaction”.
The same measure, in the same setting: as for L787E;F794R, the entry is “disrupting interaction”.

The variants in another experiment derive from B2. The following applies: with bcar1_human BCAR1, P56945.
On to L623E, for which the “effect of a mutation on the interaction” value is recorded as “disrupting interaction”.
The same measure, in the same setting: as for L469R, the entry is “decreasing interaction”.
Same read-out and setting: as for R627E, the entry is “decreasing interaction”.

Variants of B2 are the subject of another experiment. The following applies: with bcar1_human BCAR1, P56945. The source holds these as a separate data set.
Turning to L469R, the “effect of a mutation on the interaction” value is recorded as “disrupting interaction”.

Variants of B3 are the subject of another experiment. The settings on record: with bcar1_human BCAR1, P56945.
For L744E, the “effect of a mutation on the interaction” value is “disrupting interaction”.
Same read-out and setting: as for R748E, the entry is “disrupting interaction”.
